Test results reported in IntAct's records for PubMed 20729554.

B1: Matrilin-1 (Homo sapiens), P21941 (parent)
chain: MRVLSGTSLMLCSLLLLLQALCSPGLAPQSRGHLCRTRPTDLVFVVDSSRSVRPVEFEKVKVFLSQVIESLDVGPNATRVGMVNYASTVKQEFSLRAHVSKAALLQAVRRIQPLSTGTMTGLAIQFAITKAFGDAEGGRSRSPDISKVVIVVTDGRPQDSVQDVSARARASGVELFAIGVGSVDKATLRQIASEPQDEHVDYVESYSVIEKLSRKFQEAFCVVSDLCATGDHDCEQVCISSPGSYTCACHEGFTLNSDGKTCNVCSGGGGSSATDLVFLIDGSKSVRPENFELVKKFISQIVDTLDVSDKLAQVGLVQYSSSVRQEFPLGRFHTKKDIKAAVRNMSYMEKGTMTGAALKYLIDNSFTVSSGARPGAQKVGIVFTDGRSQDYINDAAKKAKDLGFKMFAVGVGNAVEDELREIASEPVAEHYFYTADFKTINQIGKKLQKKICVEEDPCACESLVKFQAKVEGLLQALTRKLEAVSKRLAILENTVV

Variants of: B1
Details: with co2a1_bovin COL2A1, P02459
Sequence of co2a1_bovin COL2A1, P02459 (P02459 whole entry): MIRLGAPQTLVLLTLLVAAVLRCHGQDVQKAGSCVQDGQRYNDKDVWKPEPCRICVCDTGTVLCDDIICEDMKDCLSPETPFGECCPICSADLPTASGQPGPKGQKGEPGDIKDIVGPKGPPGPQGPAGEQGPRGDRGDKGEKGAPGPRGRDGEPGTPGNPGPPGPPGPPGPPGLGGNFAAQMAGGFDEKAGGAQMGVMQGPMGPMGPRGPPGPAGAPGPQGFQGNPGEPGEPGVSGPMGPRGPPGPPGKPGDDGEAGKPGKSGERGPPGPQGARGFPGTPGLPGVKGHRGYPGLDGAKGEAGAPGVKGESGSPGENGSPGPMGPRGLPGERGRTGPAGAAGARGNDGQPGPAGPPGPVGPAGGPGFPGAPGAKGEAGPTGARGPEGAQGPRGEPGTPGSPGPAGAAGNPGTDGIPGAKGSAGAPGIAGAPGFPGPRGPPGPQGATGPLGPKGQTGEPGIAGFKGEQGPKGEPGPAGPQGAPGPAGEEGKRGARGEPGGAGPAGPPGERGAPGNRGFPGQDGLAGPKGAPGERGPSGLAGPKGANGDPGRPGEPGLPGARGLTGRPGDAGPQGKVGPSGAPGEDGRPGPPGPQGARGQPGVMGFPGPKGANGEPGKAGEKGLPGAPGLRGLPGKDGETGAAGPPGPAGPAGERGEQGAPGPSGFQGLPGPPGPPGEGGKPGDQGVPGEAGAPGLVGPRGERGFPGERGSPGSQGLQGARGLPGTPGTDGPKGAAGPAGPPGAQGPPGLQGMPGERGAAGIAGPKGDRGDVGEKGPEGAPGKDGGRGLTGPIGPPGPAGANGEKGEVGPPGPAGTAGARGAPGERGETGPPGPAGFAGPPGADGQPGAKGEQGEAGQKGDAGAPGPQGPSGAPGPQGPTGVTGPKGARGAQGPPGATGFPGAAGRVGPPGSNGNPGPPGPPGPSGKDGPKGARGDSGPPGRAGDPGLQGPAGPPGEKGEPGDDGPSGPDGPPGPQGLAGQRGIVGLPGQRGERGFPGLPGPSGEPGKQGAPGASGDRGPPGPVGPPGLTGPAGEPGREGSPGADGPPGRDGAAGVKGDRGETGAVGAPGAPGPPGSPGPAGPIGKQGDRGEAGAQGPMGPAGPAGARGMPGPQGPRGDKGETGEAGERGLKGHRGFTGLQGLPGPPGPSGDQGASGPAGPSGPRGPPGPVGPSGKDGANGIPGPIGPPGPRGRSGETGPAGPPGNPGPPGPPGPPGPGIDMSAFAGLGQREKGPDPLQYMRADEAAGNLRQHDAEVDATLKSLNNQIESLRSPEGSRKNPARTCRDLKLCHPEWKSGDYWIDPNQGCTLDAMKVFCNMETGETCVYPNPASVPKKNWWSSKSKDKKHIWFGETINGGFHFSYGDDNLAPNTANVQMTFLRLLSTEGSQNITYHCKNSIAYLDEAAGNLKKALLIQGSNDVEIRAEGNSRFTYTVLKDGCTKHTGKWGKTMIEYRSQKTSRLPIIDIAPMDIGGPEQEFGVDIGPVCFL

| effect of a mutation on the interaction | Variant |
| --- | --- |
| with no effect | N344A |

Variants of: B1
Details: with co2a1_bovin COL2A1, P02459
Remark: another data set of the same source

| effect of a mutation on the interaction | Variant |
| --- | --- |
| increasing interaction strength | N76A |
